# B1: Hairpin Ribozyme (parent)
# chain: GUCCUCUUUCACGUGCGCGUGAAAGAGAGAAGUGAACCAGAGAAACACACGUUGUGGUAUAUUACCUGGUA
# Variants of: B1
# Assay: self-cleavage, relative activity (ratio to wild type); higher = more cleavage; co-transcriptional
row,Variant,self-cleavage
1,C6U U70C,0.901
2,C6U U70G,0.588
3,U7C U62C,0.196
4,C6G G15A,0.475
5,U7A C46A,0.0948
6,C6G A43G,0.0944
7,C6G A43U,0.0915
8,U7C G29C,0.131
9,U7A U52G,0.733
10,U7C G34A,1.17
11,U7C G34U,1.32
12,C6A G17C,0.424
13,C6A G34U,1
14,U7C G32C,0.141
15,C6A G68U,0.181
16,C6A G68C,0.13
17,U7A U67C,0.25
18,C6U A71C,1.05
19,C6A U14C,0.579
20,C6G U63G,0.19
21,C6G U63C,0.142
22,C6G U63A,0.125
23,C6G A36C,0.307
24,C6G A41C,0.552

row,Variant,self-cleavage
1,U7A G17C,0.791
2,C6A U53A,0.456
3,C6A U53C,0.517
4,C6U U8C,0.686
5,U7A U20A,0.723
6,U7A U20C,0.774
7,C6A U8C,0.344
8,C6A A28C,0.233
9,C6A G21U,0.542
10,C6A G21A,0.6
11,C6G G32C,0.0741
12,U7G A11C,0.481
13,U7G A11U,0.58
14,U7G A11G,0.734
15,C6A U67A,0.144
16,C6G C37U,0.257
17,U7A G51U,0.866
18,C6G G68A,0.132
19,C6G G68U,0.156
20,C6G G68C,0.131
21,U7C C66A,0.217
22,U7C C66G,0.0988
23,U7C G54A,0.525
24,U7A G69U,0.271

row,Variant,self-cleavage
1,C6A A47G,0.157
2,C6A C18U,0.708
3,C6A C18G,0.43
4,C6A C18A,0.649
5,C6A A64U,0.163
6,C6A A64C,0.148
7,C6U U7C,0.555
8,U7C C65A,0.684
9,U7A G15C,1.06
10,U7A G15U,0.844
11,U7A G15A,0.909
12,U7C C10G,0.597
13,C6G U53C,0.329
14,C6G U53A,0.585
15,C6U A31C,0.0728
16,C6A A43G,0.223
17,C6A A43C,0.197
18,C6U A28U,0.495
19,C6G C65U,0.221
20,C6U A24G,0.353
21,C6U A41C,1.16
22,U7A C10A,0.736
23,U7A C10U,0.799
24,U7A U14C,0.772

row,Variant,self-cleavage
1,C6G U52G,0.583
2,C6G G13C,0.381
3,C6G G13A,0.45
4,U7A C65G,0.284
5,C6G U33G,0.0659
6,C6G U33C,0.206
7,U7A G29C,0.149
8,U7C A61G,0.164
9,U7C A61U,0.175
10,U7C A49G,0.478
11,C6A C46U,0.171
12,C6A C46A,0.119
13,C6G G25C,0.744
14,U7C A36G,0.925
15,U7C A36U,0.466
16,C6A A44C,0.0999
17,C6A A44U,0.167
18,C6A A44G,0.113
19,C6G A49C,0.0827
20,U7A U53A,0.879
21,U7A U53C,1.07
22,C6A G13C,0.341
23,C6G U62A,0.0667
24,C6G U62G,0.159

row,Variant,self-cleavage
1,C6U A35C,0.896
2,C6U A35G,0.683
3,C6U G34U,1.21
4,C6G U9G,0.208
5,C6G U9A,0.274
6,C6G G19U,0.201
7,U7C C12G,0.758
8,U7A G27A,0.27
9,U7C A41C,1.01
10,C6A C16U,0.659
11,C6A C16G,0.351
12,C6U C37A,0.286
13,U7A G13U,0.774
14,U7A G13C,0.778
15,C6G C10A,0.354
16,C6A A41C,0.873
17,C6A A41U,0.919
18,C6U C66A,0.11
19,C6U C66G,0.194
20,C6A C12A,0.52
21,C6G A31G,0.355
22,C6G A28C,0.145
23,C6G A28G,0.605
24,C6G A28U,0.22

row,Variant,self-cleavage
1,C6A G42U,0.223
2,U7C U33G,0.129
3,U7C U33C,0.157
4,U7C A43U,0.151
5,C6A A23U,0.503
6,C6U G25C,0.773
7,C6U A43C,0.0901
8,C6U A43G,0.151
9,C6U C12U,0.696
10,C6U G40U,0.166
11,U7A C38G,0.2
12,C6U A26U,0.414
13,C6U A23C,0.608
14,C6U A23U,0.615
15,U7A A45C,0.232
16,C6A C65A,0.492
17,U7A U8A,1.14
18,U7A U33A,0.218
19,C6U U63C,0.167
20,C6U U63G,0.119
21,C6U G42A,0.275
22,C6A C37G,0.287
23,C6U G29A,0.158
24,C6G C16G,0.423

row,Variant,self-cleavage
1,U7C U60C,0.905
2,U7A A23G,0.866
3,C6A U60C,0.793
4,C6A U60G,0.4
5,U7C A35U,0.523
6,U7C A35G,0.931
7,C6U G51A,0.816
8,U7C A28U,0.514
9,U7C A28C,0.367
10,U7C G69C,0.17
11,U7G A23C,0.624
12,U7G A23G,0.752
13,C6U U58A,0.66
14,C6A C38A,0.141
15,U7A A36G,1.03
16,U7C G57C,0.107
17,U7C G57A,0.153
18,C6U G17A,0.917
19,C6U G17C,0.434
20,C6G U58A,0.29
21,C6G U58G,0.498
22,C6G U58C,0.484
23,C6U U62G,0.102
24,C6A A30U,0.0998

row,Variant,self-cleavage
1,C6A G19C,0.55
2,U7A C48A,0.165
3,U7A C48U,0.0656
4,U7A C48G,0.0789
5,U7C U52G,0.653
6,U7C U52C,0.528
7,U7C U63C,0.256
8,U7A G34A,1.39
9,C6A C66U,0.247
10,C6A C66A,0.198
11,C6A C66G,0.109
12,C6G G17U,0.369
13,C6A G51C,0.531
14,C6A A61C,0.225
15,U7C A47G,0.0534
16,U7A U62C,0.222
17,C6G A22U,0.377
18,C6G A22G,0.52
19,C6U U33A,0.148
20,U7A G40A,0.313
21,C6U G56U,0.144
22,U7A A49C,0.18
23,U7C A59G,0.088
24,C6G A30U,0.105

row,Variant,self-cleavage
1,C6A U58A,0.457
2,C6G A35G,0.414
3,C6G A71U,0.409
4,U7C G19U,0.68
5,C6A U55C,0.243
6,C6G A61G,0.147
7,C6G A26U,0.198
8,C6G A26G,0.203
9,U7A A41G,0.973
10,C6A A49U,0.162
11,U7A U70C,1.04
12,C6U A49U,0.159
13,C6U A49C,0.0449
14,U7C U14A,0.808
15,U7A G42A,0.166
16,U7A A64G,0.525
17,C6A U70A,0.598
18,C6A U70C,0.618
19,C6A U63A,0.144
20,C6A U63C,0.191
21,U7C C50U,0.523
22,U7A G25U,0.229
23,U7A G25A,0.249
24,U7A A35C,1.28

row,Variant,self-cleavage
1,C6G C50U,0.265
2,C6A G69A,0.23
3,C6G U8G,0.269
4,C6G U8A,0.263
5,C6G U8C,0.228
6,C6U G68A,0.209
7,C6U G68U,0.239
8,C6U G68C,0.154
9,C6A G25U,0.763
10,C6A G25C,0.64
11,C6A G29C,0.123
12,U7C U70G,0.877
13,C6A A24C,0.445
14,U7A A61G,0.186
15,U7A A61U,0.167
16,U7C A30U,0.257
17,U7C A30C,0.121
18,U7C C38G,0.202
19,C6U U67G,0.271
20,C6G C46G,0.124
21,U7C G56C,0.122
22,U7C G56A,0.184
23,U7A A28U,0.58
24,U7A U60G,0.496

row,Variant,self-cleavage
1,U7A U60C,0.923
2,C6A U52G,0.547
3,U7A A24U,1.15
4,U7C G15C,0.948
5,U7C G15U,1.05
6,C6G U70C,0.497
7,U7C A44G,0.0315
8,U7C A44C,0.0427
9,U7A G57C,0.151
10,U7A G57A,0.128
11,C6G G29U,0.0829
12,U7A C18G,0.802
13,U7A A39C,0.498
14,C6U C38A,0.0889
15,C6G G54U,0.267
16,C6G G54A,0.28
17,U7A A22U,0.814
18,C6A G15C,0.586
19,C6A G15U,0.582
20,U7C U8A,0.615
21,U7C U8C,0.52
22,C6G G34C,1.03
23,C6A U7A,0.648
24,C6A U7G,0.447

row,Variant,self-cleavage
1,U7C U9A,0.607
2,U7C G40U,0.163
3,U7C U20C,1.14
4,U7C U20A,0.82
5,U7A A44G,0.201
6,U7A A44U,0.117
7,C6A C10U,0.371
8,C6U C16U,0.971
9,C6U C16G,0.65
10,U7C U55A,0.167
11,U7C U55G,0.344
12,U7C U55C,0.418
13,C6A C48A,0.084
14,C6A C48G,0.121
15,C6A A71G,0.606
16,U7C A23U,0.694
17,U7C A23G,0.6
18,C6A U9C,0.262
19,C6A U9A,0.417
20,U7C U67A,0.167
21,U7C U67C,0.215
22,U7C U53C,0.677
23,C6U C48A,0.209
24,C6U C48U,0.227

row,Variant,self-cleavage
1,U7C G13A,0.615
2,U7C G13U,0.788
3,C6A U33A,0.129
4,U7C U58A,0.565
5,C6A U20C,0.556
6,C6A U20A,0.551
7,C6U U53G,0.801
8,C6U U53C,0.704
9,U7A A26C,0.174
10,U7A A26U,0.202
11,C6G A44C,0.17
12,C6G A44U,0.148
13,C6G A44G,0.134
14,C6G G56U,0.141
15,U7C C46A,0.224
16,U7C C46U,0.195
17,C6U G21U,0.468
18,C6G G57A,0.11
19,U7G A24U,0.685
20,U7G A24C,0.677
21,U7C A71U,0.592
22,U7C G21U,0.565
23,C6U A39C,0.504
24,U7A G54C,0.349

row,Variant,self-cleavage
1,C6U G15U,0.814
2,U7A U63A,0.181
3,C6A G27U,0.121
4,C6A G27A,0.126
5,U7C A24C,1.04
6,U7C A24U,0.707
7,C6A A45U,0.179
8,U7C G17U,0.892
9,C6G C48G,0.115
10,C6A A39C,0.436
11,C6U A61C,0.296
12,C6U C65U,0.323
13,U7G A22U,0.59
14,C6G G51C,0.458
15,C6G G51A,0.682
16,U7C A31U,0.112
17,U7C A31G,0.525
18,U7C A45U,0.231
19,U7C C48G,0.145
20,U7C C48A,0.114
21,U7A A43U,0.216
22,U7A G21A,0.706
